# US20230322924A1 (Janssen / Centocor, published 2023)
# Tests used:
# [1] = target: T1, human PSMA on cells (LNCaP) (human, UniProt Q04609 1-750); assay: flow cytometry, mammalian Fab supernatant on LNCaP cells, anti-human kappa-RPE
# T1 construct: whole, on cells; also called LNCaP cells
# Description: Individual Fab clones were isolated from the round 3 output of all panning experiments following pIX excision. Fab clones were tested for binding to chimp and cyno PSMA expressing HEK cells, as well as to human PSMA on LNCaP cells. Briefly, PSMA expressing cells were aliquoted into a V-bottom plate (CoStar 3357) at a density of 200,000 per well and incubated with (100 μl) supernatants expressing Fab fragments for 1 hour on ice. Cells were washed twice with PBS containing 2% FBS, and stained with a mouse anti-human kappa-RPE antibody (Life Technologies cat #MH10514) for 1 hour on ice. Cells were washed twice with PBS containing 2% FBS and resuspended in […] of the same wash buffer. Plates were read on a BD FACS Array flow cytometer. FACS data was analyzed in FlowJo software by live gating the healthy population of cells using forward scatter and side scatter, and then analyzing the cells within this gate for PE staining. Mean fluorescence intensity (MFI) was calculated and exported into Microsoft Excel. […] Fabs were sequenced and moved forward for cloning into mammalian expression vector for rescreening. True positives were selected from the binding of mammalian cell expressed Fab supernatants to PSMA-expressing cell lines.
# FIGS. 22A, 22B, 22C and 22D show the titration curves for anti-PSMA panning hits vs. LNCaP cells. […] Binding profiles among hits were compared across cell lines expressing different species of PSMA.
# Human CD33 full length = Human CD33 full length (human, UniProt P20138 18-364); assay: cell-based or functional assay
# Rh-integrin a4b7 = target: T2, Rh-integrin a4b7 (UniProt P13612 34-977; P26010 20-723, limits assumed); assay: Biacore 8K SPR, antibody over immobilised protein
# T2 construct: rh read as recombinant human
# Description: (§1) Non-specific binding of the lead molecule to unrelated surfaces is determined by biosensor technology (Biacore 8K). Antibody is passed over SPR surfaces coated with unrelated proteins. […] Irrelevant surfaces include negatively charged protein (Soy Trypsin Inhibitor), positively charged protein (Lysozyme and β-defensin), hydrophobic (Rh-integrin a4b7), human IgG, sticky protein (Rh-CD19). Proper controls are used in this experiment. Lead is flown over two surfaces, one is a blank and the other has a molecule directly immobilized. The response unit (RU) level is determined by subtracting the blank RU from the test surface RU. […] A response unit ≥100 predicts high risks for non-specific binding to charged/hydrophobic/IgG surfaces which would create challenges during manufacturing and translate to poor PK properties.
# Rh-CD19 = target: T3, Rh-CD19 (UniProt P15391 20-291, limits assumed); assay: Biacore 8K SPR, antibody over immobilised protein
# T3 construct: rh read as recombinant human
# T3 sequence (looked up): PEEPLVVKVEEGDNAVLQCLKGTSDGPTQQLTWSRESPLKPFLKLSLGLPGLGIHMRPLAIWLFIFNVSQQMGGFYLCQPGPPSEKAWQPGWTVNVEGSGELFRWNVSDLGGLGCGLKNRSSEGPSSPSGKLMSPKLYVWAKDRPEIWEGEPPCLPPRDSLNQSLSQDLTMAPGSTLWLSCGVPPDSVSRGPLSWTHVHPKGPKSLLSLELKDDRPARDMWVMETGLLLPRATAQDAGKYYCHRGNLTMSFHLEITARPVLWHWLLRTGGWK
# Description: as §1
# [2] = target: T4, TMEW1 (TMEFF2-FL-ECD-His-Avitag) (human, UniProt Q9UIK5 41-320); assay: Biacore 8K SPR, mAb captured on anti-human Fc, single cycle kinetics
# T4 construct: Human TMEFF2 ECD with C-terminal G3S, 6xHis tag and Avi-tag, all in the entry; also called TMEFF2 ECD
# T4 sequence: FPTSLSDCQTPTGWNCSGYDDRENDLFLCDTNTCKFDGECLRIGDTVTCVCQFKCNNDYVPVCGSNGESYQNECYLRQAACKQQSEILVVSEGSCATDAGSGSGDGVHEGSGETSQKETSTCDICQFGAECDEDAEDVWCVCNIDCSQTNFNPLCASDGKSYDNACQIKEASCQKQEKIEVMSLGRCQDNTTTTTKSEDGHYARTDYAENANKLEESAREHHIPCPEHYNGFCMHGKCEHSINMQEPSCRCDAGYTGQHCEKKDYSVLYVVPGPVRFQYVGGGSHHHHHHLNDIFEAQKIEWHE
# Description: The binding of anti-TMEFF2 mAbs to human TMEFF2 ECD was measured by Biacore 8K SPR. The format of the assay was to capture the mAbs using a high density anti-human Fc surface, then inject human TMEFF2 concentration titration using a single cycle kinetics method. […] The mAbs were captured on the anti-human Fc IgG surface at 0.5 μg/ml (˜200-300 RU) on flow cell 2. The running buffer was then changed to HBSP+100 ug/ml BSA. TMEFF2 ECD at 30 nM concentration in 3-fold dilution series was injected from low to high concentration using single cycle kinetics method. The off-rate was monitored 30 minutes after the last or highest concentration injection and then the surface was regenerated using 0.8% phosphoric acid (Bio-Rad). A buffer blank run, capturing the same mAbs and using the same conditions of sample run was also completed. The raw data were processed by subtracting two sets of reference data from the response data: 1) reference flow cell 1 subtracted from sample flow cell 2 and 2) buffer blank run from experimental run. The processed data at all concentrations for each mAb were globally fit to a 1:1 simple Langmuir binding model to extract estimates of the kinetic (kon, koff) and affinity (KD) constants.
# Human CD33 ECD-HSA = target: T5, Human CD33 ECD-HSA (human); assay: SPRi off-rate screen (IBIS MX96)
# T5 construct: CD33 ECD fused at the C-terminus to monomeric HSA (C58S) and a six-histidine tag; also called C33W2; huCD33 ECD-HSA
# Sequence of Human CD33 full length (P20138 18-364 limits assumed): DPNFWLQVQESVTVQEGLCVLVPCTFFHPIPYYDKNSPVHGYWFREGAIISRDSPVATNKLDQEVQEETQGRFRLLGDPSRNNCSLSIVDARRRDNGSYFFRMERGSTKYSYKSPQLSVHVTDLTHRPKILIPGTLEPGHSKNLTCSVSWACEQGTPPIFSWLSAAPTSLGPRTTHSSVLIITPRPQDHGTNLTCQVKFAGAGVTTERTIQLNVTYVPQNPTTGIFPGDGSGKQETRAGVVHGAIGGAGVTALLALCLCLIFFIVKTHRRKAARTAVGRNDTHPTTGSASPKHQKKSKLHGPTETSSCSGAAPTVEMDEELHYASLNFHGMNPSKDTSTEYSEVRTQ
# T1 sequence (Q04609 whole entry): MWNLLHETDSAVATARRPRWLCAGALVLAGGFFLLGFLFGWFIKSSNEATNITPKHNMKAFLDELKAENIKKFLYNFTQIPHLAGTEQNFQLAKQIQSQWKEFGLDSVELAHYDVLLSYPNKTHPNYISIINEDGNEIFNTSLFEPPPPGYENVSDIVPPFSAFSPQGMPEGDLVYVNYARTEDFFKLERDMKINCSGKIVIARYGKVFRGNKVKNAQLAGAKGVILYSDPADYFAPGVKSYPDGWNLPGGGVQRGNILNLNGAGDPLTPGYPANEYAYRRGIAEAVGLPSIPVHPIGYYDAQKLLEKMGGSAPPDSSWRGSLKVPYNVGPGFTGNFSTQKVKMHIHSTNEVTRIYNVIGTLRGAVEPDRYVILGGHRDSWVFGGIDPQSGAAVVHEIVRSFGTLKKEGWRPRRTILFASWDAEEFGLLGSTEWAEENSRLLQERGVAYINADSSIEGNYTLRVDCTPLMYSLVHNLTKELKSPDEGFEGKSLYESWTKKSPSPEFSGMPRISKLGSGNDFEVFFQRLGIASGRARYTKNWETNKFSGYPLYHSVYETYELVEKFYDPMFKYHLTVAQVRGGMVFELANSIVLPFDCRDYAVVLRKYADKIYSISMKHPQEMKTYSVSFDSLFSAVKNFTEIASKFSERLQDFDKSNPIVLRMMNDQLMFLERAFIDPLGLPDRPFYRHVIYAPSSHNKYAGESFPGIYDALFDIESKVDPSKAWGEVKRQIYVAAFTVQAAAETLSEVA
binder,measurement,setting,value
"PSMM81 (Fab, V domains shown, Mammalian Fab supernatant; also called PSMB80) VH: QVQLVQSGAEVKKPGSSVKVSCKASGGTFDDYAISWVRQAPGQGLEWMGRIDPIEGTANYAQKFQGRVTITADESTSTAYMELSSLRSEDTAVYYCARDRYYYDGVYWYSDYFDYWGQGTLVTVS VL: not shown",EC50 (read off the curve),[1],~0.08 µg/mL
"C3CB97 (bispecific antibody, IgG4, V domains shown) VH 1: QVQLVQSGSELRKPGASVKVSCKASGYTFTNYAMNWVRQAPGQGLEWMGWINTNTGNPTYAQGFTGRFVFSLDTSVSSAYLQISSLKAEDTAMYYCATDRDRGTDYWGQGTLVTVSS VL 1: QSALTQPASVSGSPGQSITISCTGTSSDVGDYNYVSWYQQHPGKVPKLMIYDVSNRPSGVSNRFSGSMSGNTASLTISGLQAEDEADYYCSSYSSSSALEVFGGGTKLTVL VH 2: QVQLQQSGPRLVRPSQTLSLTCAISGDSVFNNNAAWSWIRQSPSRGLEWLGRTYYRSKWLYDYAVSVKSRITVNPDTSRNQFTLQLNSVTPEDTALYYCARGYSSSFDYWGQGTLVTVSS VL 2: QSALTQPASVSGSPGQSITISCTGTSSNIGTYKFVSWYQQHPDKAPKVLLYEVSKRPSGVSSRFSGSKSGNTASLTISGLQAEDQADYHCVSYAGSGTLLFGGGTKLTVL",Primary AML Cell Killing EC50,Human CD33 full length,~0.232 nM
"TMCB150 (bispecific antibody, human IgG4 S228P, kappa, lambda, F234A L235A, IgG4 PAA; also called TMEB762×CD3B376) heavy 1: not shown light 1: not shown heavy 2: QVQLQQSGPRLVRPSQTLSLTCAISGDSVFNNNAAWSWIRQSPSRGLEWLGRTYYRSKWLYDYAVSVKSRITVNPDTSRNQFTLQLNSVTPEDTALYYCARGYSSSFDYWGQGTLVTVSSASTKGPSVFPLAPCSRSTSESTAALGCLVKDYFPEPVTVSWNSGALTSGVHTFPAVLQSSGLYSLSSVVTVPSSSLGTKTYTCNVDHKPSNTKVDKRVESKYGPPCPPCPAPEAAGGPSVFLFPPKPKDTLMISRTPEVTCVVVDVSQEDPEVQFNWYVDGVEVHNAKTKPREEQFNSTYRVVSVLTVLHQDWLNGKEYKCKVSNKGLPSSIEKTISKAKGQPREPQVYTLPPSQEEMTKNQVSLTCLVKGFYPSDIAVEWESNGQPENNYKTTPPVLDSDGSFLLYSKLTVDKSRWQEGNVFSCSVMHEALHNHYTQKSLSLSLGK light 2: QSALTQPASVSGSPGQSITISCTGTSSNIGTYKFVSWYQQHPDKAPKVLLYEVSKRPSGVSSRFSGSKSGNTASLTISGLQAEDQADYHCVSYAGSGTLLFGGGTKLTVLGQPKAAPSVTLFPPSSEELQANKATLVCLISDFYPGAVTVAWKADSSPVKAGVETTTPSKQSNNKYAASSYLSLTPEQWKSHRSYSCQVTHEGSTVEKTVAPTECS",binding result,Rh-integrin a4b7,no binding (tested: response unit ≥100 predicts high risks)
same,binding result,Rh-CD19,no binding (tested: response unit ≥100 predicts high risks)
"TMEB757 (antibody, human IgG4 S228P, kappa, F234A L235A, V domains shown, IgG4 PAA anti-TMEFF2; re-engineered variant of TMEB675; also called TMEH460/B76L85; TMEFB757) VH: EVQLLESGGGLVQPGGSLRLSCAASGFTFSSYSMSWVRQAPGKGLEWVSVISGSGGFTDYADSVKGRFTISRDNSKNTLYLHMNSLRAEDTAVYYCARMPLNSPHDYWGQGTLVTVSS VL: AIQMTQSPSSLSASVGDRVTITCRASQGIRNDLGWYQQKPGKAPKLLIYAASSLQSGVPSRFSGSGSGTDFTLTISSLQPEDFATYYCLQDYNYPLTFGGGTKVEIKR",Kd,[2],0.31 nM
same,koff,[2],0.000167 s⁻¹
same,kon,[2],542000 M⁻¹ s⁻¹
"C3CB12 (bispecific antibody, IgG4, V domains shown) VH 1: not shown VL 1: SYELTQPPSVSVSPGQTASITCSGNKLGAKFASWYQQKPGQSPVLVIYQDNKRPSGIPERFSGSNSGNTATLTISGTQAVDEADYYCQAWDSSTVVFGGGTKLTVL VH 2: EVQLVESGGGLVQPGGSLRLSCAASGFTFNTYAMNWVRQAPGKGLEWVARIRSKYNNYATYYAASVKGRFTISRDDSKNSLYLQMNSLKTEDTAVYYCARHGNFGNSYVSWFAYWGQGTLVTVSS VL 2: QTVVTQEPSLTVSPGGTVTLTCRSSTGAVTTSNYANWVQQKPGQAPRGLIGGTNKRAPGTPARFSGSLLGGKAALTLSGVQPEDEAEYYCALWYSNLWVFGGGTKLTVL",Primary AML Cell Killing EC50,Human CD33 full length,2.63 nM
"C3CB103 (bispecific antibody, IgG4, V domains shown) VH 1: QVQLVESGGGVVQPGRSLRLSCVASGFTFSSYGMHWVRQAPGKGLEWVAVISYDGSNKYYADSVKGRFTISRDNSKNTLYLQMNSLRAEGTAVYYCAKDFRSFDWLPPDSASYHGMDVWGQGTTVTVSS VL 1: SYELTQPPSVSVSPGQTASITCSGDKLGDKYACWYQQKPGQSPVLVIYQDGKRPSGIPERFSGSNFGNKATLTISGTQAMDEADYYCQAWDRNTVVFGGGTKLTVL VH 2: QVQLQQSGPRLVRPSQTLSLTCAISGDSVFNNNAAWSWIRQSPSRGLEWLGRTYYRSKWLYDYAVSVKSRITVNPDTSRNQFTLQLNSVTPEDTALYYCARGYSSSFDYWGQGTLVTVSS VL 2: QSALTQPASVSGSPGQSITISCTGTSSNIGTYKFVSWYQQHPDKAPKVLLYEVSKRPSGVSSRFSGSKSGNTASLTISGLQAEDQADYHCVSYAGSGTLLFGGGTKLTVL",Primary AML Cell Killing EC50,Human CD33 full length,4.19 nM
"C3CB7 (bispecific antibody, IgG4, V domains shown) VH 1: QVQLVQSGSELRKPGASVKVSCKASGYTFTNYAMNWVRQAPGQGLEWMGWINTNTGNPTYAQGFTGRFVFSLDTSVSSAYLQISSLKAEDTAMYYCATDRDRGTDYWGQGTLVTVSS VL 1: QSALTQPASVSGSPGQSITISCTGTSSDVGDYNYVSWYQQHPGKVPKLMIYDVSNRPSGVSNRFSGSMSGNTASLTISGLQAEDEADYYCSSYSSSSALEVFGGGTKLTVL VH 2: EVQLVESGGGLVQPGGSLRLSCAASGFTFNTYAMNWVRQAPGKGLEWVARIRSKYNNYATYYAASVKGRFTISRDDSKNSLYLQMNSLKTEDTAVYYCARHGNFGNSYVSWFAYWGQGTLVTVSS VL 2: QTVVTQEPSLTVSPGGTVTLTCRSSTGAVTTSNYANWVQQKPGQAPRGLIGGTNKRAPGTPARFSGSLLGGKAALTLSGVQPEDEAEYYCALWYSNLWVFGGGTKLTVL",Primary AML Cell Killing EC50,Human CD33 full length,0.332 nM
"C3CB102 (bispecific antibody, IgG4, V domains shown) VH 1: not shown VL 1: SYELTQPPSVSVSPGQTASITCSGNKLGAKFASWYQQKPGQSPVLVIYQDNKRPSGIPERFSGSNSGNTATLTISGTQAVDEADYYCQAWDSSTVVFGGGTKLTVL VH 2: QVQLQQSGPRLVRPSQTLSLTCAISGDSVFNNNAAWSWIRQSPSRGLEWLGRTYYRSKWLYDYAVSVKSRITVNPDTSRNQFTLQLNSVTPEDTALYYCARGYSSSFDYWGQGTLVTVSS VL 2: QSALTQPASVSGSPGQSITISCTGTSSNIGTYKFVSWYQQHPDKAPKVLLYEVSKRPSGVSSRFSGSKSGNTASLTISGLQAEDQADYHCVSYAGSGTLLFGGGTKLTVL",Primary AML Cell Killing EC50,Human CD33 full length,4.97 nM
"C33B782 (antibody, IgG4, V domains shown, also called C33H72/C33L40; C33F82) VH: not shown VL: SYELTQPPSVSVSPGQTASITCSGNKLGAKFASWYQQKPGQSPVLVIYQDNKRPSGIPERFSGSNSGNTATLTISGTQAVDEADYYCQAWDSSTVVFGGGTKLTVL",koff,Human CD33 ECD-HSA,0.000258 s⁻¹
"C33B792 (antibody, IgG4, V domains shown, also called C33H87/C33L35; C33F92) VH: not shown VL: SYELTQPPSVSVSPGQTASITCSGDKLGNKYASWYQQKPGQSPVLVIYQDTKRPSGIPERVSGSNSGNTATLTISGTQAMDEADYHCQAWDSSTVVFGGGTKLTVL",koff,Human CD33 ECD-HSA,0.000427 s⁻¹
